This is an account of results in article PMC5897841, “Development of a multipurpose scaffold for the display of peptide loops” (Protein Engineering, Design and Selection, 2017).

Bridge positions count the residues as written; N and C are the ends. Ends that are not written are not given here.

In test [1] the target is T1, wild-type Aurora A (Aurora AWT) kinase domain (Homo sapiens, UniProt O14965).
T1 construct: Aurora A (126-391)WT; made in house; host or cells: E. coli; plasmid pHAT4-LambdaPP
T1 sequence (O14965 126-391): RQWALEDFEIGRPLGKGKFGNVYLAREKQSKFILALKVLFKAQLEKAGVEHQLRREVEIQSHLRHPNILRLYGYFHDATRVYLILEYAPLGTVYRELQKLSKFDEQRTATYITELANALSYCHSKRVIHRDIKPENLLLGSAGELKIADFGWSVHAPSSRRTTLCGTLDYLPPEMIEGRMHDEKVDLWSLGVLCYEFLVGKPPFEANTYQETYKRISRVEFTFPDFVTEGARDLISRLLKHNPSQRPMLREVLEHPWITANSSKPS
Description: Bio-Layer Interferometry direct binding of Aurora AWT to RAD-TPX2 mutants. To be noted: double His-tagged RAD-TPX2 on Anti-Penta-HIS biosensors, 50 mM HEPES pH 7.4, 500 mM NaCl, 100 mM Mg(CH3COO)2, 0.5 mM ATP, 0.5 mM TCEP, 0.05% P20, 1:1 model, read-out: KD, BLI (Fig. 5a). As to the method:
Octet RED96 (ForteBio) instrument was used for BLI analysis for double His-tagged RAD-TPX2/Aurora AWT interactions. Experiments were performed using Anti-Penta-HIS biosensors (ForteBio), which were regenerated with 10 mM glycine, pH 1.7. IMAC purified RAD proteins displaying wild-type sequence or alanine mutants of the TPX2 were buffer exchanged into 50 mM HEPES pH 7.4, 500 mM NaCl, 100 mM Mg(CH3COO)2, 0.5 mM ATP, 0.5 mM TCEP, 0.05% P20 (assay buffer). For binding assays pre-wet sensors were loaded with double His-tag labeled proteins at 1 μM in assay buffer. Dilution series (from 0 to 500 or 5000 nM) of Aurora AWT kinase construct without His-tag was prepared in the assay buffer and following experimental setup was used for each measurement cycle: regeneration 3 × 5 s, baseline monitoring 120 s, sample loading 200 s, baseline monitoring 150 s, ligand binding (association) 400 s and ligand dissociation 600 s, followed by regeneration and the next cycle. Regenerated Anti-Penta-HIS biosensors were used to perform double referencing. Data was processed using ForteBio Analysis 7.1 software and dissociation constants were calculated in pro Fit (Quantum Soft) by fitting experimental data to 1:1 binding model equation.
(In general: Biolayer interferometry detects binding as a change in optical thickness at a sensor tip.)

The target in test [2] is T2, CK2α kinase (Homo sapiens, UniProt P68400).
T2 construct: made in house; host or cells: E. coli BL21(DE3) with pUBS520; pBAT4 plasmid
T2 sequence (P68400 2-329): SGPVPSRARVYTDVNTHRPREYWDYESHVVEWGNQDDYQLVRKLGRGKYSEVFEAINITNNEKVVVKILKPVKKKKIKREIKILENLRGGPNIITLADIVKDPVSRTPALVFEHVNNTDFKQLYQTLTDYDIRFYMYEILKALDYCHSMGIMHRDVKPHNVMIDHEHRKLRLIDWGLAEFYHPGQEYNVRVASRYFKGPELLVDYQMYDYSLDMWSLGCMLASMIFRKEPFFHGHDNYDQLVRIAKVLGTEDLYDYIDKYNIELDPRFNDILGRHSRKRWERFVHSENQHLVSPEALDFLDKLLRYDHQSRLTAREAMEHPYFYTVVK
Description: Fluorescence anisotropy direct binding of labeled CK2β(186–200) / RAD-CK2β. On the procedure: About 100 μg peptide or protein in 500 μl sodium phosphate pH 6.75, 150 mM NaCl were labeled using 30-fold excess of the maleimide dye. The reactions was allowed to proceed for 1 h at room temperature and the Alexa Fluor 488-maleimide was removed by dialysis using 3-kDa molecular weight cut-off membrane against 10 mM Tris pH 8, 250 mM NaCl buffer. Protein and peptide samples were dialyzed for 3 h at room temperature and further purified by SEC using Superdex 75 GL 10/300 or Superdex peptide 10/300 GL column (GE Healthcare). Labeled peptides and proteins were concentrated to 100 μM, flash frozen in liquid nitrogen and stored at −80°C. The concentration of labeled peptide or proteins and degree of labeling was determined by measuring the absorbance at 280 and 495 nm.
A stock solution of Alexa Fluor 488-labeled peptide or display proteins was diluted in assay buffer to concentration of 20 nM. For both studies, 10 mM HEPES pH 7.4, 500 mM NaCl, 1 mM DTT, 0.05% P20 buffer from was used. […] FA was measured using PheraStar spectrofluorimeter plate reader (BMG Laboratories, Durham, NC) equipped with polarization filters (excitation 485 nm, emission 520 nm). Dissociation constants were calculated in pro Fit (Quantum Soft) by fitting experimental data to 1:1 binding model equation.
For orientation: In fluorescence polarisation assays a small probe gives low polarisation when free and higher when bound to something large.

Test [3] has as its target T2, CK2α kinase. Description: ITC binding of CK2β(186–200) peptide / RAD display to CK2α. The note with it: 25°C, 10 mM HEPES pH 7.4, 500 mM NaCl, 0.05% P20, 100 μM titrant into 10 μM CK2α, single titration, ± from fitting, RAD version is cRAD-CK2β(186–200), read-out: Equilibrium dissociation constant (KD), ITC. As to the method:
(§1) All ITC experiments were performed on itc200 instrument (GE Healthcare). Prior to ITC titration, proteins and peptides were buffer exchanged into 10 mM HEPES pH 7.4, 500 mM NaCl, 0.05% P20 surfactant. ITC experiments with Aurora Awt kinase were performed in buffer containing 50 mM HEPES pH 7.4, 100 mM Mg(CH3COO)2, 100 mM NaCl, 1 mM ATP, 1 mM DTT, 0.01% v/v P20. […] In the Aurora AD274N and Aurora AWT binding assays, 50 μM solution of the titrant was injected into 5 μM kinase solution in the cell. […] Binding isotherms were fit by non-linear regression using the single-site model provided by ORIGIN software (Origin Lab). The stoichiometry of the interaction (N), equilibrium association constant (KA) and change of enthalpy (ΔH) were floated during the fitting.

Test [4] addresses T2, CK2α kinase. Kind of test: SPR binding of CK2α to immobilized CK2β(186–200) / RAD-CK2β. The note with it: Biacore T100, CM5 chip, ligand immobilized via free cysteine (linear peptide with C-terminal Gly-Cys), 25°C, 10 mM HEPES pH 7.4, 500 mM NaCl, 0.05% P20; data at 200 s post-injection; 1:1 steady-state model; ± from fitting; read-out: Equilibrium dissociation constant (KD), SPR steady-state. As to the method:
SPR analyses were conducted using a Biacore T100 instrument (GE Healthcare) using CM5 sensor chips to which cRAD display proteins were immobilized through their unique cysteine residues. All coupling reagents were purchased from GE Healthcare: N-ethyl-N′-dimethylaminopropylcarbodiimide (EDC), 2-(2-pyridinyldithio) ethaneamine hydrochloride (PDEA), N-hydroxysuccinimide (NHS). All immobilizations were conducted at 25°C in running buffer 10 mM HEPES pH 7.4, 500 mM sodium chloride, 0.05% P20. Two CM5 sensor chips were used for the experiments. Peptides and RAD scaffold displaying the peptides were covalently immobilized via free cysteine on the sensor surface in cells 2 and 4, respectively. Cells 1 and 3 were derivatized with cysteine only and served as reference surfaces. Active and reference cells were created automatically using the immobilization surface preparation Wizard software. Immobilization levels for cells 2 and 4 ranged from 240 to 400 RU. […] The dissociation step was 180 s after which sensor surfaces were regenerated by injecting 3 M MgCl2 solution 3 times for 30 sat 60 μl/min. […] Aurora A binding to TPX-2 peptide and RAD-TPX-2 were analyzed also using kinetic data with heterogenous ligand model, with data presented in the Supplementary Material.
For orientation: SPR reads the build-up and loss of mass on a sensor chip optically.

Test [5] concerns the target T2, CK2α kinase. Kind of test: Affinities for CK2α across the experimental techniques (ITC, SPR, FA). The class given is binding. The note with it: read-out: KD range between the different experimental techniques. As to the method:
as §1, with “The stoichiometry of the interaction (N), equilibrium association constant (KA) and change of enthalpy (ΔH) were floated during the fitting.” left out
SPR analyses were conducted using a Biacore T100 instrument (GE Healthcare) using CM5 sensor chips to which cRAD display proteins were immobilized through their unique cysteine residues. […] Aurora A binding to TPX-2 peptide and RAD-TPX-2 were analyzed also using kinetic data with heterogenous ligand model, with data presented in the Supplementary Material.
A stock solution of Alexa Fluor 488-labeled peptide or display proteins was diluted in assay buffer to concentration of 20 nM. […] FA was measured using PheraStar spectrofluorimeter plate reader (BMG Laboratories, Durham, NC) equipped with polarization filters (excitation 485 nm, emission 520 nm). Dissociation constants were calculated in pro Fit (Quantum Soft) by fitting experimental data to 1:1 binding model equation.

For the next test, the target named is CK2α. Details: method as in Raaf et al., 2013. To be noted: ref Raaf et al., 2013; cited from earlier work.
Another test has as its system CK2β/CK2α complex. Details: method as in Laudet et al., 2007. The note with it: read-out: IC50, inhibition of CK2β/CK2α complex formation; ref Laudet et al., 2007; cited from earlier work.
In another test the target is Aurora A. To be noted: N-terminal segment of TPX2; ref Anderson et al., 2007; read-out: Affinity of TPX2 for Aurora A; cited from earlier work. The source says: Aurora A kinase plays an important role in the mitotic spindle assembly and is overexpressed in tumor cells ([Bischoff et al., 1998]). It is known to be dramatically activated by TPX2 protein, which binds to the Aurora A catalytic domain and translocates the kinase to the mitotic spindle during mitosis ([Bischoff et al., 1998]; [Kufer et al., 2002]; [Eyers et al., 2003]).

Consider “RAD-TPX2(7–43): RAD scaffold (RadA ATPase domain) displaying residues 7–43 of human TPX2”, for which the Kd in test [1] turned out to be 46 nM.

On to “fluorescein labeled linear CK2β peptide: fluorescein labeled linear CK2β(186–200) peptide (RLYGFKIHPMAYQLQ; also: fluorescein label, site not given here; UniProt P67870 186-200, looked up, fragment) [reference compound]”, for which the “Fold weaker affinity of labeled linear peptide vs RAD display, FA” value with CK2α kinase [2] (fluorescein-labeled linear CK2β peptide relative to RAD-CK2β display) is listed as ~ 3 times.

For “CK2β(186–200): synthetic linear peptide, residues 186–200 of human CK2β (RLYGFKIHPMAYQLQ; UniProt P67870 186-200, looked up, fragment)”, the Kd with CK2α kinase [3] is 138 ± 13 nM; in the test with CK2α kinase [4] it was 407 ± 50 nM; with CK2α kinase [2] (fluorescein-labeled linear peptide or Alexa Fluor 488-labeled cRAD-CK2β(186–200), 10 mM HEPES pH 7.4, 500 mM NaCl, 1 mM DTT, 0.05% P20, CK2α 2 nM–2 μM, 15 min room temperature, 1:1 model, ± from fitting, read-out: Equilibrium dissociation constant (KD), FA) it was 348 ± 27 nM; in the test with CK2α kinase [5] it was 138 to 407 nM.

For the substance “GCRLYGFKIHGCG (disulfide 2-12 (inferred)) [Pc peptide]”, the Kd at CK2α is 559 nM. In addition, the IC50 with CK2β/CK2α complex was 3000 nM.

For “TPX2: TPX2 protein, binds Aurora A through its N-terminal segment (LSYSYDAPSDFINFSSLDDEGDTQNIDSWFEEKANLENLKGGGCQM; left off: KSI, end not stated, cleaved)”, the Kd on Aurora A was 2.3 nM.
